Tests used:
[1] = system: chondrocyte aggregate cultures; assay: Chondrocyte cytokine induction assay (Proteome Profiler Cytokine Arrays); format: cell-based, human
Text: Chondrocyte aggregate cultures are used which form an extensive extracellular matrix with components characteristic of articular cartilage including aggrecan and type II collagen as described in Welter, J. et al, BioTechniques, 2007, 42(6):732-737; and Solchaga, L. A. et al., Chondrogenic Differentiation of Bone Marrow-Derived Mesenchymal Stem Cells: Tips and Tricks, 2011, 698:253-278.
To form the chondrocyte aggregate cultures, lx10^6 human mesenchymal stem cells (passage one, Lonza, catalog #PT-2501) were plated in a T150 flask (Corning) and cultured in growth media: mesenchymal stem cell basal media (MSCBM, Lonza, #PT-3238), mesenchymal growth supplements (SingleQuots, Lonza, #PT-4105), and 5 ng/ml recombinant human […] (Shenandoah Biotechnology). When confluent, cells were trypsin-released (0.5% trypsin EDTA, Gibco), expanded to two T150 flasks and fed with growth media every three days. When confluent, cells were harvested, resuspended in fresh growth media containing 5% DMSO and aliquots of 1×10^6 cells were cryopreserved in liquid nitrogen.
Human mesenchymal stem cells were used to promote chondrogenesis and chondrocyte aggregate formation for use in these studies. Two vials of passage three cryopreserved cells were thawed, plated in growth media in two T150 flasks and then expanded to six T150 flasks as above. Cells were harvested (0.5% trypsin EDTA, Gibco), pooled, enumerated and induced to chondrogenic differentiation as follows. Cells were resuspended in defined chondrocyte differentiation media: high glucose DMEM (Gibco), 50 μg/ml ascorbic acid-2-phosphate (Sigma), 39.3 ng/ml dexamethasone (Sigma), […] L-proline (Sigma), ITS+Premix (BD Biosciences), 10 ng/ml transforming growth factor β-3 (Shenandoah Biotechnology) and 30 μg/ml gentamicin sulfate+15 ng/ml amphotericin-B (GA-1000, Lonza, #PT-4504E). High density aggregates were obtained by plating, on average, 3×10^5 cells per well in a conical bottom 96 well plate (Thermo Scientific), pelleting by centrifugation (5 minutes at 600 g), and incubation at 37° C. and 5% CO2. Pellets formed coherent spherical aggregates by day two of culture. After seven days, wide bore tips were used to transfer aggregates to V-bottom 96 well plates (Corning). Aggregates were maintained in differentiation media at 37° C. and 5% CO2 for 3-5 weeks and fed every two days until experimentation.
For chondrocyte cytokine induction assays, 24 hours prior to experimentation, dexamethasone containing media was removed, aggregates were rinsed with DPBS (Gibco) and dexamethasone-free differentiation media was added. For experimentation, aggregates were transferred to 24 well plates (24 aggregates per condition), spent media was removed and fresh warmed dexamethasone-free media containing samples was added. Aggregates were then incubated at 37° C. and 5% CO2 for two days.
Recombinant BbHtrA or BbHtrA^S226A was added to culture medium and incubated with chondrocyte aggregate cultures. BbHtrA and BbHtrA^S226A were purified using an E. coli system and was expected to contain endotoxin which would have a stimulatory effect on the chondrocytes. To control for endotoxin contamination (lipopolysaccharide, LPS), an endotoxin removal kit (Noragen) was used to remove the bulk of LPS from recombinant BbHtrAs. The relative toxicity of the amount remaining in the BbHtrA and BbHtrA^S226A samples was determined by a chromogenic Limulus Amoebocyte Lysate (LAL) method (Lonza, Walkersville, Md.). Prior to addition to aggregates, LPS (44 ng, 200 EU), BbHtrA^WT (20 μg, 27.9 EU LPS) and BbHtrA^S226A ([…], 1.99 EU LPS) were incubated in 1 mg/ml polymyxin B sulfate (Sigma) on ice for 30 min with occasional mixing. Warmed dexamethasone-free medium was then added to each test condition to a final volume of 1 ml. Control aggregates were maintained in untreated medium also containing polymyxin B sulfate. The final concentration for all test conditions was 60 μg/ml polymyxin B sulfate. […]

[2] = system: Aggrecan; assay: BbHtrA proteolysis assay, aggrecan substrate; format: biochemical, bovine, human; conditions: SDS-PAGE, silver stain, FIG. 4A
Procedure: For proteolysis assays described in Examples herein, purified protein substrates (200-600 nM) and proteases (100-150 nM) were diluted in assay buffer (50 mM HEPES, pH 7.4, 5 mM CaCl2) and incubated overnight at 37° C. Samples were boiled for 4 minutes to inactivate the proteases. Proteoglycans were deglycosylated by overnight incubation at 37° C. with 0.01 U chondroitinase ABC (Seikagaku). Reactions were stopped by the addition of SDS/PAGE sample buffer, boiled for 4 minutes, and electrophoresed on pre-cast Tris-glycine gels (BioRad). Reaction products were visualized by silver staining.
BbHtrA cleaved recombinant human aggrecan (G1-IGD-G2 domains) within the IGD (FIG. 4A). Cleavage of recombinant aggrecan generated three high molecular weight proteolytic fragments which migrated at ˜110 kd, ˜60 kd and ˜50 kd.
BbHtrA also degraded native, fully glycosylated aggrecan (FIG. 4B, lane 5). Again, this degradation required BbHtrA catalytic activity (FIG. 4B, lane 6). The BbHtrA-generated aggrecan fragments appear to be a doublet, unlike those generated by HtrA1.
Purified proteins were incubated with BbHtrA or BbHtrA^S226A as described herein. HtrA (also known as DegP) proteases belong to the family of serine proteases which contain a highly reactive serine residue in their active site. This serine (Ser210 in DegP) is part of the canonical His-Ser-Asp catalytic triad and mutation of the catalytic serine abolishes proteolytic activity (Skorko-Glonek et al., 1995). In BbHtrA, residues His119, Ser226 and Asp149 form the catalytic triad and mutation of serine 226 to alanine abolished proteolytic activity as expected (FIG. 5).
Reaction products were separated by SDS-PAGE and silver stained. Native collagen II and recombinant tenascin C were not degraded by BbHtrA indicating selectivity for proteoglycans, E-cadherin and fibronectin. FIG. 5 is an image of SDS-PAGE analysis showing that BbHtrA degrades aggrecan, neurocan, versican, brevican, biglycan, decorin, E-cadherin, and casein.

[3] = spent medium of chondrocyte aggregates after 48 hours, cytokine array, background subtracted

B1: BbHtrA^S226A (protein)
chain: MEKKFFSGFLLSFLALSIGFFIGMHYLASNRSNIVFAEEKDNTVRALQDSFREVSKKILPSSVEVHATGVIKQSFPIPFFFFDMPEFDSERKSNWAGSGVIIGRDSQKKSLFYVVTNSHVVDKATELEVVSYDKKKHKAKLIGKDEKKDIALISFESDDATIKVADLGDSDKLEIGDWVMAVGSPFQFSFTVTAGIVSGLQRSANPNLQSRNLFIQTDAAINRGNAGGPLVNIKGEVIGINAWIASNSGGNIGLGFAIPVNNIKSTVDFFLKGKKIESAWLGISFYPLKTRDSEVLKSLGVESNDVSAAIIASLYPGSPAVKSGLRAGDIIMKVNGVSMSVFQDVTSYISDFYAGEKVNVEILRGNVKKNIEIVLAVRPKDKELSSSKMLPGFVVYPLVEDIKAQLNLRNWIKGVVVDYIDKNLASNIKMKSGDVILSVNSKSVSNLREFYDALEVGKNTYKILRGNDSFKITF
modifications: Mutant Borrelia burdorferi HtrA S226A
- Cytokines released by chondrocytes in response ([1]; additional experiments, FIG. 10: BbHtrA^WT, BbHtrA^S226A, LPS, medium alone): IL-8 and CXCL1
- GROα/CXCL1 pixel density, Mean [1, 3]: 0.647
- I-309/CCL1 pixel density, Mean [1, 3]: 0.163
- IL-6 pixel density, Mean [1, 3]: 0.309
- IL-8 pixel density, Mean [1, 3]: 1.187
- MCP-1/CCL2 pixel density, Mean [1, 3]: 0.050
- RANTES/CCL5 pixel density, Mean [1, 3]: 0.265
- sICAM-1/CD54 pixel density, Mean [1, 3]: 0.257
- Cleavage of recombinant human aggrecan (G1-IGD-G2 domains) within the IGD [2]: failed to generate these fragments

Reference: patent publication US9383360B2, “Compositions and methods relating to lyme disease” (The United States of America, as represented by the …, priority 2012, dated 2016)
